In patent publication US11266616B2, “Compositions and methods for inhibiting kinase activity” (BRANDEIS UNIVERSITY, priority 2016, dated 2022):
Numbering of substitutions follows the chain as printed.

Assays:
Aurora A kinase [1] = target: T1, Aurora A kinase (Homo sapiens, UniProt O14965, T288V); assay: In vitro kinase assay (HPLC-based / ATP/NADH-coupled) of peptide substrate phosphorylation; format: biochemical; settings: dephosphorylated Aurora A (T288V mutant), AP peptide, FIG. 20
T1 construct: Codon-optimized Aurora A^122-403 in pET28a and untagged λPP in T7-7 plasmid were co-transformed in BL21(DE3) cells; made in house; host or cells: E. coli BL21(DE3)
T1 sequence (O14965 122-403 T288V): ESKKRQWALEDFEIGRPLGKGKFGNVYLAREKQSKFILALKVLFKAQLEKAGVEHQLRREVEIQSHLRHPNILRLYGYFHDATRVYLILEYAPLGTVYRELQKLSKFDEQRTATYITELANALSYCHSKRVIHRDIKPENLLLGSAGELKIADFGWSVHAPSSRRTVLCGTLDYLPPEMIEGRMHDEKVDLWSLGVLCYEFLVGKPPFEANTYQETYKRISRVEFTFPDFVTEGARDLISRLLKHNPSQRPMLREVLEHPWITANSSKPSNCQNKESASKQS
Protocol: (§1) Aurora A, either phosphorylated/dephosphorylated wild type or mutant protein, was mixed with either AP ([…]) (SEQ ID NO: 5), Kemptide (LRRASLG) (SEQ ID NO: 6), or Lats2 ([…]) (SEQ ID NO: 7), in the absence or presence of 50 μM TPX2 in kinase buffer (20 mM TrisHCl, 200 mM NaCl, 3% [vol/vol] glycerol, 20 mM MgCl2, 1 mM TCEP, pH 7.50). These substrates comprise the consensus sequence for Aurora A ([R/K/N]—R—X—[S/T]-B where B is any hydrophobic residue with the exception of Pro) (Ferrari et al., 2005, Biochem. J., 390(Pt 1):293-302; Ohashi et al., 2006, Oncogene, 25:7691-7702; Sardon et al., 2010, EMBO Reports, 11:977-984). Peptides were ordered through Genscript. For HPLC-based activity assays the following protocol was used. The reaction was initiated with the addition of 5 mM ATP. Then 5 μl time points were collected, resuspended in 10 μl 6% (vol/vol) trichloroacetic acid (in water) to quench the reaction, and neutralized with 50 μl 100 mM KH2PO4, pH 8.0 to provide the appropriate pH for nucleotide separation. The mixture was then passed through a 0.22 μm SpinX column to remove any protein precipitation. Reverse phase-high performance liquid chromatography (RP-HPLC) and an ACE 5 C18-AR, 100 Å pore size column, were used to separate nucleotides as well as peptides. For nucleotide runs, 2 μl of the aforementioned mixture was sufficient for analysis, whereas for the peptide runs the optimal injection volume was 20 μl. Nucleotide runs were routinely performed to ensure no unproductive hydrolysis was occurring during the experiment. An isocratic elution run in 100 mM KH2PO4, pH 6.0 was performed for this purpose. For the peptide runs, a gradient of 0-30% of elution buffer lasting 10 min at 0.4 mL/min was sufficient to separate phosphorylated from non-phosphorylated species. The running buffer was 0.1% TFA (vol/vol) in water, while the elution buffer was 100% acetonitrile. Lastly, to ensure full saturation of Aurora A by TPX2 and test these proteins were well behaved, a dose-dependence curve of the effect of TPX2 on Aurora A was obtained.
(§2) For ATP/NADH-coupled assay-based reaction, the following protocol was used. Phosphorylation of different concentrations of Lats2 peptide was monitored using the ATP/NADH coupled assay in a 96-well plate format. Reactions were carried in the presence of 1 μM dephosphorylated or 0.05 μM phosphorylated Aurora and 5 mM ATP in assay buffer (20 mM TrisHCl, 200 mM NaCl, 20 mM MgCl2, 10% (v/v) glycerol, 1 mM TCEP, pH 7.50) at 25° C.

Aurora A kinase [2] = target: T2, Aurora A kinase (Homo sapiens, UniProt O14965); assay: as above; format: biochemical; settings: phosphorylated Aurora A, AP peptide, FIG. 20
T2 construct: Codon-optimized Aurora A^122-403 in pET28a and untagged λPP in T7-7 plasmid were co-transformed in BL21(DE3) cells; inferred from pET28a and the NiNTA column) (cleaved yes); made in house; host or cells: E. coli BL21(DE3)
T2 sequence (O14965 122-403): T1 sequence (O14965 122-403 T288V) with V167T
Protocol: as §1, §2

TPX2: naturally occurring allosteric activator of Aurora A kinase, binds the PIF pocket (MSQVKSSYSYDAPSDFINFSSLDDEGDTQNIDSWFEEKANLENKL) [reference compound]
effect of TPX2 binding on kinase activity (Aurora A kinase [1]): greatly increased
effect of TPX2 binding on kinase activity (Aurora A kinase [2]): only slightly increased
